1 molecule from patent publication EP4674868A1 (Jiangsu Hengrui Pharmaceuticals Co., Ltd., dated 2026) can be followed below.

The target in assay [1] is T1, human 4-1BB on the surface of HEK293 cells (HEK293-Hu4-1BB) (human, UniProt Q07011 24-255). Nature of the assay: cell-based or functional assay.
The target of assay [2] is T1, human 4-1BB on the surface of HEK293 …. Nature of the assay: FACS, HEK293-Hu4-1BB cells. (In general: A flow cytometer gives signals particle by particle.)

B1: humanized anti-4-1BB nanobody C5_V1 linked to human IgG1-Fc (Fc fusion)
chain: QVQLVESGGGLVQPGGSLRLSCSASGFTFSSYAMSWVRQAPGKGLEWVSDINSGGESTFYEDSVKGRFTISRDNAKNTLYLQMNSLRAEDTAVYYCARHPLTFTIATMNDYDYWGQGTLVTVSSEPKSADKTHTCPPCPAPELLGGPSVFLFPPKPKDTLMISRTPEVTCVVVDVEHEDPEVKFNWYVDGVEVHNAKTKPREEQYNSTYRVVSVLTVLHQDWLNGKEYKCKVSSKAFPAPIEKTISKAKGQPREPQVYTLPPSRDELTKNQVSLTCLVKGFYPSDIAVEWESNGQPENNYKTTPPVLDSDGSFFLYSKLTVDKSRWQQGNVFSCSVMHEALHNHYTQKSLSLSPGK
In the case of B1, in assay [1], the “Activation of HEK293-4-1BB cells (NF-κB reporter), Fold change in Emax” value was 1.14 fold and the “FcγRIIb-mediated activation of HEK293-4-1BB cells (NF-κB reporter), Fold change in Emax” value turned out to be 2.28 fold. In assay [2], the EC50 (in general, the concentration needed to bring the measured effect to its halfway point) is 3.79 nM and the Maximum fluorescence value came to 1040.
